Measured values from paper PMC11960969, “Mdga2 deficiency leads to an aberrant activation of BDNF/TrkB signaling that underlies autism-relevant synaptic and behavioral changes in mice” (PLOS Biology, 2025).

Legend:
[1] = system: TrkB signaling (pTrkB, pAkt, pmTOR); experiment: Immunoblotting of TrkB/Akt/mTOR phosphorylation in primary neurons transfected with MDGA2, ΔMAM or V930I; format: cell-based, mouse; settings: Mdga2-/- neurons, n = 6, Fig 7F
Procedure: Fig 3 MDGA2 interacts with TrkB and suppresses TrkB activity. (A) Primary hippocampal neurons derived from Mdga2^ +/− (Het) mice and their wild-type (WT) littermates at DIV 7 were treated with different doses of BDNF for 30 min. Equal amounts of protein lysates were subjected to immunoprecipitation (IP) with an anti-TrkB antibody, followed by immunoblotting with an anti-phosphotyrosine (pTyr) antibody or the anti-TrkB antibody. The pTyr levels were quantified by densitometry, normalized to total TrkB levels, and then compared to those of WT controls. n = 3 per group. (B) WT mouse brain lysates were subjected to IP with an anti-MDGA2 antibody and a control IgG, and immunoblotted (IB) for the components indicated. mBDNF, mature BDNF; ImBDNF, immature BDNF. (C) Hippocampal neurons from WT mice at DIV 7 were immunostained with antibodies against MDGA2 (red) and TrkB (green), and then counter-stained with DAPI (blue). Images were acquired by a confocal microscope. Scale bar: 10 μm. (D) Surface plasmon resonance (SPR) analysis of the binding between recombinant MDGA2 protein and recombinant TrkB protein. TrkB was immobilized on a Biacore CM5 chip and tested for its binding with MDGA2 at the concentrations indicated. (E) Computer simulation of the binding mode of TrkB and MDGA2. The predicted binding domain of TrkB (the d5 domain) is highlighted by a red square and labeled in brown. The predicted binding domain of MDGA2 (the MAM domain) is highlighted by a red square and labeled in yellow. (F) HEK293T cells were co-transfected with TrkB-Flag and GFP-tagged full-length MDGA2 (MDGA2-GFP) or an MDGA2 deletion fragment lacking the entire MAM domain (ΔMAM-GFP). Cell lysates were subjected to IP with control IgG and antibodies against Flag or GFP, and immunoblotted for the components indicated. […] The scheme of MDGA2-ΔMAM is also shown. (G) HeLa cells were co-transfected with TrkB that is tagged with the N-terminal Venus fragment (TrkB-VN) and full-length MDGA2 or MDGA2-ΔMAM that are tagged with the C-terminal Venus fragment (MDGA2-VC or ΔMAM-VC) for 24 h. After immunostaining with antibodies against MDGA2/MDGA2-ΔMAM (pink) and TrkB (red), cells were observed by confocal microscopy. Venus signal (green) indicates the interaction between MDGA2 and TrkB. Schematic diagrams depicting the BiFC assay are also shown. Scale bars: 10 μm. (H, I) Equal amounts of protein lysates from primary neurons derived from Het, KO, and their WT littermate mice (H), and from WT primary neurons transfected with GFP control, MDGA2-GFP or ΔMAM-GFP (I) were subjected to IP with IgG and an anti-BDNF antibody, and then immunoblotted for the components indicated. Immunoprecipitated TrkB levels were quantified by densitometry, normalized to input levels, and compared to respective controls (set to one arbitrary units). n = 3 per group. (J) Neurons derived from KO mice were transfected with GFP control (Ctrl), MDGA2-GFP, or MDGA2-ΔMAM-GFP, and neurons derived from their WT littermates were transfected with GFP control (Ctrl). Equal amounts of protein lysates were subjected to immunoblotting for the proteins indicated. Levels of phosphorylated proteins were quantified by densitometry, normalized to respective total protein levels and compared to controls (set to one arbitrary units). n = 6 per group. Data represent mean ± SEM. P-values were determined by two-tailed unpaired Student t-test in (A) and one-way ANOVA with Tukey’s multiple comparisons test in (H, I, J). *p < 0.05, **p < 0.01, ***p < 0.001, ns: not significant. The data underlying this figure can be found in S1 Data, specifically in the sheet labeled “Figure 3”.
Fig 7 The autism spectrum disorder (ASD)-associated MDGA2 V930I mutation impairs the MDGA2-TrkB interaction and MDGA2’s inhibitory effect on the tyrosine kinase B (TrkB) signaling. (A) Schematic depiction of the WT human MDGA2 and its V930I mutation constructs that are tagged with GFP. […]

HeLa cells = experiment: Cell surface biotinylation of MDGA2 or V930I in transfected HeLa cells; format: cell-based; settings: n = 4, Fig 7D
Description: (§1) Fig 7 The autism spectrum disorder (ASD)-associated MDGA2 V930I mutation impairs the MDGA2-TrkB interaction and MDGA2’s inhibitory effect on the tyrosine kinase B (TrkB) signaling. (A) Schematic depiction of the WT human MDGA2 and its V930I mutation constructs that are tagged with GFP. (B, C) HeLa cells (B) and mouse primary neurons (C) transfected with MDGA2 (green) or V930I (green) were immunostained with an antibody against the plasma membrane protein ATP1A1 (red) and then observed by confocal microscopy. Scale bars = 10 μm. (D) Cell surface expression of WT MDGA2 or V930I in transfected HeLa cells was determined by surface biotinylation assays. Biotinylated (cell surface) protein levels were quantified by densitometry and normalized to total protein levels for comparison (WT MDGA2 levels were set to one arbitrary unit). n = 4 experimental replicates. (E) Mouse primary neurons were transfected with MDGA2, V930I, or ΔMAM. […] Immunoprecipitated protein levels were quantified by densitometry, normalized to respective inputs, and compared to those transfected with MDGA2 (set to one arbitrary units). n = 4 experimental replicates. […] Levels of phosphorylated proteins were quantified by densitometry, normalized to respective total protein levels and compared to controls (set to one arbitrary units). n = 6 experimental replicates. […]

TrkB = experiment: Co-IP of MDGA2, V930I or ΔMAM with TrkB in mouse primary neurons; format: binding; settings: n = 4, Fig 7E
Description: as §1

[2] = system: cell membrane localization in HeLa cells and mouse primary neurons; experiment: Immunostaining of membrane localization of MDGA2, ΔMAM or V930I in transfected cells; format: cell-based; settings: HeLa cells and mouse primary neurons, Fig 7B, 7C
Description: as §1

B1: MDGA2-V930I: MDGA2 with ASD-associated missense mutation V930I, GFP-tagged (protein)
chain: PPTVRIVHSGLACNIEEERYSERVYTIREGETLELTCLVTGHPRPQIRWTKTAGSASDRFQDSSVFNETLRITNIQRHQGGRYYCKAENGLGSPAIKSIRVDVYYLDDPVVTVHQSIGEAKEQFYYERTVFLRCVANSNPPVRYSWRRGQEVLLQGSDKGVEIYEPFFTQGETKILKLKNLRPQDYANYSCIASVRNVCNIPDKMVSFRLSNKTASPSIKLLVDDPIVVNPGEAITLVCVTTGGEPAPSLTWVRSFGTLPEKTVLNGGTLTIPAITSDDAGTYSCIANNNVGNPAKKSTNIIVRALKKGRFWITPDPYHKDDNIQIGREVKISCQVEAVPSEELTFSWFKNGRPLRSSERMVITQTDPDVSPGTTNLDIIDLKFTDFGTYTCVASLKGGGISDISIDVNISSSTVPPNLTVPQEKSPLVTREGDTIELQCQVTGKPKPIILWSRADKEVAMPDGSMQMESYDGTLRIVNVSREMSGMYRCQTSQYNGFNVKPREALVQLIVQYPPAVEPAFLEIRQGQDRSVTMSCRVLRAYPIRVLTYEWRLGNKLLRTGQFDSQEYTEYAVKSLSNENYGVYNCSIINEAGAGRCSFLVTGKAYAPEFYYDTYNPVWQNRHRVYSYSLQWTQMNPDAVDRIVAYRLGIRQAGQQRWWEQEIKINGNIQKGELITYNLTELIKPEAYEVRLTPLTKFGEGDSTIRVIKYSAPVNPHLREFHCGFEDGNICLFTQDDTDNFDWTKQSTATRNTKYTPNTGPNADRSGSKEGFYMYIETSRPRLEGEKARLLSPVFSIAPKNPYGPTNTAYCFSFFYHMYGQHIGVLNVYLRLKGQTTIENPLWSSSGNKGQRWNEAHVNIYPITSFQLIFEGIRGPGIEGDIAIDDVSIAEGECAKQDLATKNSID
modifications: left off: GFP, end not stated, kept
notes: MDGA2 with ASD-associated missense mutation V930I, GFP-tagged
aberrant activation of TrkB/Akt signaling upon re-expression [1]: did not inhibit the aberrant activation of the TrkB/Akt signaling as WT MDGA2 did | cell surface levels (biotinylation) (HeLa cells): significantly lower than those of WT MDGA2 | interaction with TrkB (IP) vs WT MDGA2 (TrkB): significantly decreased compared to that of WT MDGA2 | cell surface distribution (immunostaining) [2]: cell surface distribution was much less than that of WT MDGA2
